Data on three molecules can be found in US10118965B2, “Compositions and methods related to anti-EGFR antibody drug conjugates” (LegoChem Biosciences, Inc., priority 2015, dated 2018).

Where a SMILES comes first, the peptide text is derived from it. [ ]: non-standard residue; d: D form. Dolaproine = CO[C@@H]([C@@H]1CCCN1)[C@@H](C)C(=O)O; Dil = CC[C@H](C)[C@H](NC)[C@@H](CC(=O)O)OC; NMeV = CN[C@H](C(=O)O)C(C)C

One test concerns A431 cells. Nature of the test: In vitro cytotoxicity, SRB assay, A431 cells. The note with it: A431 (EGFR high), 72 hours. The class given is cell-based, human. Here is the method: (§1) A431 cells, which express high levels of EGFR, and MCF-7 cells, which express low levels of EGFR, were plated at about 1000 cells per well in a 96-well plate in 100 μL of media. HCC-827 cells, which express an intermediate level of EGFR were plated at about 500 cells per well in a 96-well plate in 100 μL of media. The cells were incubated at 37° C. in 5% CO2 for 24 hours. […] The cells were incubated for 72 hours and then fixed for 1 hour at 4° C. after adding 100 μL of ice-cold 10% tricholoracetic acid to each well. Viable cells were counted using SRB dye (Sulphorhodamine, Sigma S 1402) and a Molecular Devices SpectraMax 190 plate reader running Softmax Pro v5, monitoring absorbance at 540 nm (FIG. 12).
Background: The SRB assay estimates cell density from bound dye.

The test system of the next test is HCC-827 cells. Nature of the test: In vitro cytotoxicity, SRB assay, HCC-827 cells. The note with it: HCC-827 (EGFR Intermediate: del E746_A750), 72 hours. The class given is cell-based. On the procedure: as §1
The next test deals with MCF-7 cells. Nature of the test: In vitro cytotoxicity, SRB assay, MCF-7 cells. The class given is cell-based. The conditions noted are these: MCF7 (EGFR low), 72 hours. Here is the method:
as §1

Test [1] deals with epidermal growth factor receptor (EGFR) (human) (UniProt P00533). Description: flow cytometry on A431 cells, 0.5 µg/mL primary antibody, anti-human IgG1-PE secondary.
For test [2] the target is unchanged. Nature of the test: flow cytometry on A431 cells, 2 µg/mL human IgG1 negative control, anti-human IgG1-PE secondary (cell only: 11.7).
The target is the same in test [3]. Nature of the test: flow cytometry on A431 cells, 2 µg/mL human IgG1 negative control, anti-human IgG1-PE secondary (cell only: 11.76).
The target is the same in test [4]. Nature of the test: flow cytometry on A431 cells, 2 µg/mL human IgG1 negative control, anti-human IgG1-PE secondary (cell only: 10.84). (A flow cytometer gives signals particle by particle.)

Regarding `CC[C@H](C)[C@@H]([C@@H](CC(=O)N1CCC[C@H]1[C@H](OC)[C@@H](C)C(=O)N[C@@H](Cc1ccccc1)C(=O)OC)OC)N(C)C(=O)[C@@H](NC(=O)[C@@H](NC)C(C)C)C(C)C` [MMAF-Ome, monomethyl auristatin F-Ome] (H-[NMeV]V[Dil][Dolaproine]F-OMe), the figures for the IC50 in the test on A431 cells, in the test with HCC-827 cells and with MCF-7 cells were 1.11 nM, 1.99 nM and 1.81 nM, respectively.

Regarding Erbitux(LC)-G7CVIM (antibody), in test [1], the Geometric Mean (PE-A fluorescence) is 160.

In test [2], Human IgG1 (antibody) had a Geometric Mean (PE-A fluorescence) of 10.9. In test [3], the Median (PE-A fluorescence) came out at 11.4. This molecule also displayed a Peak Channel (PE-A fluorescence) in test [4] of 11.4.

By IC50 is commonly meant the concentration at which inhibition is half-maximal.
